Test results published in patent US20160185837A1 (AstraZeneca / MedImmune, published 2016).
Changes are numbered by the printed parent chain.

T1: human GIP receptor (human, UniProt P48546 22-466)
T1 sequence (looked up): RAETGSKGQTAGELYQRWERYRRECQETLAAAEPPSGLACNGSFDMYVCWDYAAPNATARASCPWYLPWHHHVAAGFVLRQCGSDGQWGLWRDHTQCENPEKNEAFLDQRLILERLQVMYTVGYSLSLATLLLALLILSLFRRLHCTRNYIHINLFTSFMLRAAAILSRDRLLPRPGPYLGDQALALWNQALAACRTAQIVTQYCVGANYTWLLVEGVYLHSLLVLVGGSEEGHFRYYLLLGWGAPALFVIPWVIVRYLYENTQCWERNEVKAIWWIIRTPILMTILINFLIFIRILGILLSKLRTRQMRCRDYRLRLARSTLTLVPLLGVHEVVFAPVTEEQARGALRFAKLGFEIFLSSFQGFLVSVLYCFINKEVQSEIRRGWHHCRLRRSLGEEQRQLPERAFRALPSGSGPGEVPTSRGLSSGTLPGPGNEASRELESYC

T2: mouse GLP-1 receptor (mouse, UniProt O35659 22-463)
T2 sequence (looked up): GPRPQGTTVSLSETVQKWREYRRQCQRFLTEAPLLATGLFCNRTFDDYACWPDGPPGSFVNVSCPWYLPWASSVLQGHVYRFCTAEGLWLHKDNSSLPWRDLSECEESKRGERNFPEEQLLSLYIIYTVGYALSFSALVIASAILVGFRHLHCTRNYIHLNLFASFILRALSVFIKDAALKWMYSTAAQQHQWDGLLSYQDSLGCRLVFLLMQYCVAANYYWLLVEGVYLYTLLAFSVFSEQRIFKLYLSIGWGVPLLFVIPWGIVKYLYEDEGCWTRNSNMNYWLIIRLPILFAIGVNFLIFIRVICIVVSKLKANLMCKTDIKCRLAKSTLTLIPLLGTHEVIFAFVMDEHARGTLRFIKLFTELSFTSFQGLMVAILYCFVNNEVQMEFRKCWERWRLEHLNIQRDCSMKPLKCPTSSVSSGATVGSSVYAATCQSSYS

T3: mouse GIP receptor (mouse, UniProt Q0P543 19-460)
T3 sequence (looked up): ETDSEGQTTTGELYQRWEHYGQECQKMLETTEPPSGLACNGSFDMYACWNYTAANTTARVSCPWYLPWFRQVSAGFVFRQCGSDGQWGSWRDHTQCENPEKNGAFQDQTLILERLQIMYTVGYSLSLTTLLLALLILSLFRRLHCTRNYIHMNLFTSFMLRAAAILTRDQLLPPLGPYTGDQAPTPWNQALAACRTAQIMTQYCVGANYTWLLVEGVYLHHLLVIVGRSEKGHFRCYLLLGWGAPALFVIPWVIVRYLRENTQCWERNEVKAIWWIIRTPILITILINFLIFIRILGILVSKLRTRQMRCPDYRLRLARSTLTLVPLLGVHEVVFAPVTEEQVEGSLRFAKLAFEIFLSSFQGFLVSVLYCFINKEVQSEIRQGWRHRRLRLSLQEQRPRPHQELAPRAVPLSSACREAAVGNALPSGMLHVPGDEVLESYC

T4: rat GLP-1 receptor (rat, UniProt P32301 22-463)
T4 sequence (looked up): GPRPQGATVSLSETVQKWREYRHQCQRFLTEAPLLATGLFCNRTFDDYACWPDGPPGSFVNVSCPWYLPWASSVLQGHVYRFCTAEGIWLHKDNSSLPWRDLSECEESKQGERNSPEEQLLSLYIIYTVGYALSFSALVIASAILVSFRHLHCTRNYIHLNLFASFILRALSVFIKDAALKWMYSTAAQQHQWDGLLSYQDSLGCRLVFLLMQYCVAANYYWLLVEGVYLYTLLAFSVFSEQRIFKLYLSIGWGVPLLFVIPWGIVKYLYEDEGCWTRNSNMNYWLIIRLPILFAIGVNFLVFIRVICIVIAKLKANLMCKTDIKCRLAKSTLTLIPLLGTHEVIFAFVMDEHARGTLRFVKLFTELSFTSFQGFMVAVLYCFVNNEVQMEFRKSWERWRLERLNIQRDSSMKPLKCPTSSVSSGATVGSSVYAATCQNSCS

T5: rat GIP receptor (rat, UniProt P43219 19-455)
T5 sequence (looked up): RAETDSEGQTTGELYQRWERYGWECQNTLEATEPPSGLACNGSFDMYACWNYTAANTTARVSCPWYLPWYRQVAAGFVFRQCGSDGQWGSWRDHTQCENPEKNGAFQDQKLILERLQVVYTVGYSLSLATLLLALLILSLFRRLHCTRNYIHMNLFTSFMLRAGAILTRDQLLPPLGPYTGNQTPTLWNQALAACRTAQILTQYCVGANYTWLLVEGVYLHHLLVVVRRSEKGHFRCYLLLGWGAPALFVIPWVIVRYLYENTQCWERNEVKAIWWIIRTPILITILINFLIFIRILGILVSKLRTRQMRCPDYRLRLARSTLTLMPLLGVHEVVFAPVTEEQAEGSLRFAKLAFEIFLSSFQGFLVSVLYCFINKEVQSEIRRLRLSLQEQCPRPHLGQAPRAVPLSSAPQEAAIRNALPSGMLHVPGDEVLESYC

B1: IP298 (Fc fusion)
chain: YSEGTFTSDVSSYLERQAIDEFIAWLLKGGAAAGGSGSTASSGSGSATGGGGAATHTCPPC
B2: IP304 (Fc fusion)
chain: B1 chain with D20E
B3: IP403 (Fc fusion)
chain: YSEGTHTSDLRILLEEEAVRLFIEKLLAGGGSGGGGSGGGGSGGGGSGGGGSGGGGSGGGGSGGGGSACPPC
B4: IP371 (Fc fusion)
chain: YSEGMHTSDLSKLLEEEAVRLFIEWLLAGGGGGGGSGGGGSGGGGSGGGGSACPPC
B5: IP372 (Fc fusion)
chain: B4 chain with M5T, H6F, L10Y, K12I, L13Y, E15D
B6: IP357 (Fc fusion)
chain: YSEGTFTSDFSKLLEEEAVRLFIEFLLAGGGGGGSGGGGSGGGGSGGGGSATHTCPPC
B7: IP370 (Fc fusion)
chain: B6 chain with D9L, F10Y, L14K, F25W
B8: IP360 (Fc fusion)
chain: B6 chain with F10Y, S11R, K12I, F25W
B9: IP374 (Fc fusion)
chain: B6 chain with D9L, F10Y, F25W
B10: IP382 (Fc fusion)
chain: B6 chain with D9L, F10Y, F25Y
B11: IP358 (Fc fusion)
chain: B6 chain with F25W
B12: IP400 (Fc fusion)
chain: B6 chain with F6H, F10L, F25W
B13: IP379 (Fc fusion)
chain: B6 chain with F6H, F25W
B14: IP384 (Fc fusion)
chain: B6 chain with F10Y, F25W, A28K
B15: IP361 (Fc fusion)
chain: B6 chain with F10Y, S11R, K12I, L14K, F25W
B16: IP363 (Fc fusion)
chain: B6 chain with F10Y, S11R, K12M, L14K, F25W
B17: IP362 (Fc fusion)
chain: B6 chain with F10Y, S11M, K12M, L14K, F25W
B18: IP390 (Fc fusion)
chain: YSEGTFTSDYSKLLEEEAVRLFIEWLVKGPGGGGGSGGGGSGGGGSGGGGSGGGGSACPPC

The binders below were run against human GLP-1 receptor (human, UniProt P43220 24-463) (assay: cell-based or functional assay).

| Binder | cAMP EC50 [nM] |
| --- | --- |
| B1 | 0.18 |
| B2 | 0.16 |
| B3 | 960 |
| B4 | 0.48 |
| B5 | 0.71 |
| B6 | 0.27 |
| B7 | 0.62 |
| B8 | 0.31 |
| B9 | 1.4 |
| B10 | 1.5 |
| B11 | 0.24 |
| B12 | 0.29 |
| B13 | 0.84 |
| B14 | 0.091 |
| B15 | 3.4 |
| B16 | 0.98 |
| B17 | 1.7 |
| B18 | 0.13 |

Each binder was assayed against human glucagon receptor (human, UniProt P47871 26-477) (assay: cell-based or functional assay).

| Binder | cAMP EC50 [nM] |
| --- | --- |
| B1 | > 13100 |
| B2 | 2600 |
| B3 | 960 |
| B4 | > 6560 |
| B5 | > 3880 |
| B6 | 110 |
| B7 | > 9490 |
| B8 | 63 |
| B9 | > 2090 |
| B10 | 120 |
| B11 | 140 |
| B12 | 1300 |
| B13 | > 13200 |
| B14 | 26 |
| B15 | > 6200 |
| B16 | 560 |
| B17 | > 4960 |
| B18 | > 218 |

Each binder was assayed against T1, human GIP receptor (assay: cell-based or functional assay).

| Binder | cAMP EC50 [nM] | cAMP EC50, hGIPr (C3) line [nM] |
| --- | --- | --- |
| B1 | 0.14 |  |
| B2 | 0.1 |  |
| B3 | 16 |  |
| B4 | 0.011 |  |
| B5 | 0.05 |  |
| B6 | 0.014 |  |
| B7 | 0.19 |  |
| B8 | 0.016 | 2.5 |
| B9 | 0.2 |  |
| B10 | 0.19 |  |
| B11 | 0.0094 |  |
| B12 | 0.002 |  |
| B13 | 0.0038 |  |
| B14 | 0.0062 |  |
| B15 | 0.082 |  |
| B16 | 0.056 |  |
| B17 | 0.061 |  |
| B18 | 0.0088 |  |

What follows are binders tested against T2, mouse GLP-1 receptor (assay: cell-based or functional assay).

| Binder | cAMP EC50 [nM] |
| --- | --- |
| B1 | 0.36 |
| B2 | 0.69 |
| B3 | > 1740 |
| B4 | 8.5 |
| B5 | 33 |
| B6 | 1.1 |
| B7 | 13 |
| B8 | 1.2 |
| B9 | 19 |
| B10 | 16 |
| B11 | 1.1 |
| B12 | 31 |
| B13 | 44 |
| B14 | 0.99 |
| B15 | 170 |
| B16 | 11 |
| B17 | 11 |
| B18 | 2 |

The binders below were run against T3, mouse GIP receptor (assay: cell-based or functional assay).

| Binder | cAMP EC50 [nM] |
| --- | --- |
| B1 | 80 |
| B2 | 16 |
| B3 | 21 |
| B4 | 280 |
| B5 | 450 |
| B6 | 16 |
| B7 | 0.48 |
| B8 | 0.36 |
| B9 | 1.9 |
| B10 | 6.5 |
| B11 | 12 |
| B12 | 380 |
| B13 | 150 |
| B14 | 4.1 |
| B15 | 0.19 |
| B16 | 0.31 |
| B17 | 1.1 |
| B18 | 3.6 |

The binders below were run against T4, rat GLP-1 receptor (assay: cell-based or functional assay).

| Binder | cAMP EC50 [nM] |
| --- | --- |
| B1 | 0.015 |
| B2 | 0.024 |
| B3 | 73 |
| B4 | 1.1 |
| B5 | 2.9 |
| B6 | 0.13 |
| B7 | 0.35 |
| B8 | 0.15 |
| B9 | 0.89 |
| B10 | 0.68 |
| B11 | 0.15 |
| B12 | 0.19 |
| B13 | 1.5 |
| B14 | 0.024 |
| B15 | 18 |
| B16 | 1.4 |
| B17 | 1.1 |
| B18 | 0.024 |

What follows are binders tested against T5, rat GIP receptor (assay: cell-based or functional assay).

| Binder | cAMP EC50 [nM] |
| --- | --- |
| B1 | 7.5 |
| B2 | 4.6 |
| B3 | 0.02 |
| B4 | 0.21 |
| B5 | 27 |
| B6 | 0.067 |
| B7 | 0.13 |
| B8 | 0.033 |
| B9 | 0.41 |
| B10 | 0.92 |
| B11 | 0.049 |
| B12 | 0.087 |
| B13 | 0.41 |
| B14 | 0.043 |
| B15 | 0.038 |
| B16 | 0.045 |
| B17 | 0.083 |
| B18 | 0.23 |
